B1: G-rich sequence factor 1 (Homo sapiens), Q12849 (parent)
chain: MAGTRWVLGALLRGCGCNCSSCRRTGAACLPFYSAAGSIPSGVSGRRRLLLLLGAAAAAASQTRGLQTGPVPPGRLAGPPAVATSAAAAAAASYSALRASLLPQSLAAAAAVPTRSYSQESKTTYLEDLPPPPEYELAPSKLEEEVDDVFLIRAQGLPWSCTMEDVLNFFSDCRIRNGENGIHFLLNRDGKRRGDALIEMESEQDVQKALEKHRMYMGQRYVEVYEINNEDVDALMKSLQVKSSPVVNDGVVRLRGLPYSCNEKDIVDFFAGLNIVDITFVMDYRGRRKTGEAYVQFEEPEMANQALLKHREEIGNRYIEIFPSRRNEVRTHVGSYKGKKIASFPTAKYITEPEMVFEEHEVNEDIQPMTAFESEKEIELPKEVPEKLPEAADFGTTSSLHFVHMRGLPFQANAQDIINFFAPLKPVRITMEYSSSGKATGEADVHFETHEDAVAAMLKDRSHVHHRYIELFLNSCPKGK

Variants of: B1
Settings: with psd10_human PSMD10, O75832
psd10_human PSMD10, O75832, sequence (O75832 whole entry): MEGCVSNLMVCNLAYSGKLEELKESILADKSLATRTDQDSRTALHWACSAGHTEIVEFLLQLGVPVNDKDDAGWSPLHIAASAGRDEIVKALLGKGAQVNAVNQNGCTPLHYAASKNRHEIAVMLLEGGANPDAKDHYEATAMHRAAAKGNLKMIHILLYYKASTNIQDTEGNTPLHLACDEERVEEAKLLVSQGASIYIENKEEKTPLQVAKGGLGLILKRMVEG

effect of a mutation on the interaction	Variant
disrupting interaction strength	E144A;E145A;D147A
